Reference: PMC9668737, “Herpes simplex virus 1 protein pUL21 alters ceramide metabolism by activating the interorganelle transport protein CERT” (The Journal of Biological Chemistry, 2022)
Several values for one entry are separate records, joined by “and”; a condition that tells them apart may be missing. Equal entries are not always repeated.

B1: pUL21^V382E-H6 (natural protein)
chain: MELSYATTMHYRDVVFYVTTDRNRAYFVCGGCVYSVGRPCASQPGEIAKFGLVVRGTGPDDRVVANYVRSELRQRGLQDVRPIGEDEVFLDSVCLLNPNVSSELDVINTNDVEVLDECLAEYCTSLRTSPGVLISGLRVRAQDRIIELFEHPTIVNVSSHFVYTPSPYVFALAQAHLPRLPSSLEALVSGLFDGIPAPRQPLDAHNPRTDVVITGRRAPRPIAGSGAGSGGAGAKRATVSEFVQVKHIDRVGPAGVSPAPPPNNTDSSSLVPGAQDSAPPGPTLRELWWVFYAADRALEEPRADSGLTREEVRAVRGFREQAWKLFGSAGAPRAFIGAALGLSPLQKLAVYYYIIHRERRLSPFPALVRLVGRYTQRHGLYEPRPDDPVLADAINGLFRDALAAGTTAEQLLMFDLLPPKDVPVGSDVQADSTALLRFIESQRLAVPGGVISPEHVAYLGAFLSVLYAGRGRMSAATHTARLTGVTSLVLAVGDVDRLSAFDRGAAGAASRTRAAGYLDVLLTVRLARSQHGQSV

Tests used:
StrepII-CERT^P = molecular target: T1, StrepII-CERT^P (UniProt Q9Y5P4-2 1-598, hyperphosphorylated (sites not given)); assay: cell-based or functional assay
T1 sequence (looked up): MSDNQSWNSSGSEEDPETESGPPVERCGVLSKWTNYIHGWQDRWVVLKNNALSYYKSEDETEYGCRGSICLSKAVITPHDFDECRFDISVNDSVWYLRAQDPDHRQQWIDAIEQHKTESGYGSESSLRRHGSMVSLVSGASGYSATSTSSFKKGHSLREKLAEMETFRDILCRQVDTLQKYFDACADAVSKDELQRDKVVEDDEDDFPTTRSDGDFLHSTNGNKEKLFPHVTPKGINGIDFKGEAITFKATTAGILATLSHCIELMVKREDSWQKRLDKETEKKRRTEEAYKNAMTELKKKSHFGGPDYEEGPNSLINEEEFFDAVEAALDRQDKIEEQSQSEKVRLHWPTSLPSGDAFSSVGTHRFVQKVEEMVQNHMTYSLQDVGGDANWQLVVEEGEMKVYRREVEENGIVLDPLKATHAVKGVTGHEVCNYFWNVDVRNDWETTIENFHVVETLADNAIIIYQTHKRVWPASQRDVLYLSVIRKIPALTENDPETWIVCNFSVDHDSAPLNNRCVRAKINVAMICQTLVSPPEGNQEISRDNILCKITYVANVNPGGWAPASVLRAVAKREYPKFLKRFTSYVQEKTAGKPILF

[1] = molecular target: T2, H6-pUL21C (C-terminal domain of HSV-1 pUL21, amino acids 275 to 535) (herpes simplex virus 1, UniProt F8RG07 275-535); assay: ITC; CERTL forms in the syringe titrated into pUL21 forms in the cell; 25 °C; 20 mM Tris pH 8.5, 500 mM NaCl, 0.5 mM TCEP; one-site binding model; single titrations; details: both partners purified
T2 construct: C-terminal domain of pUL21 of herpes simplex virus 1, residues 275-535 of UniProt F8RG07; source: E. coli T7 Express lysY/Iq, purified (Ni-NTA, SEC); not shown: MAH6, N-terminal, kept
T2 sequence: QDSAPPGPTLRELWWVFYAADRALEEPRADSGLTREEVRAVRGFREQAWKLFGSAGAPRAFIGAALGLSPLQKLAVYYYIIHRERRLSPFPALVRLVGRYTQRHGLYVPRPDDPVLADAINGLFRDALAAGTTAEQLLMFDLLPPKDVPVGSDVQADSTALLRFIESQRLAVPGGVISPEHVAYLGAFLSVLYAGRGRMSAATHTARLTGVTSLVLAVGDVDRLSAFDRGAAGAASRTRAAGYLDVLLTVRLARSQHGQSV

[2] = molecular target: T3, pUL21^V382E-H6 (HSV-1 pUL21 with V382E) (herpes simplex virus 1, UniProt F8RG07 1-535, V382E); assay: as above; details: both partners purified
T3 construct: tegument protein pUL21 of herpes simplex virus 1, UniProt F8RG07, with V382E; the text also writes H6-pUL21^V382E; also called H6-pUL21^V382E; source: E. coli T7 Express lysY/Iq, purified (Ni-NTA, SEC); not shown: His6, C-terminal, kept
T3 sequence: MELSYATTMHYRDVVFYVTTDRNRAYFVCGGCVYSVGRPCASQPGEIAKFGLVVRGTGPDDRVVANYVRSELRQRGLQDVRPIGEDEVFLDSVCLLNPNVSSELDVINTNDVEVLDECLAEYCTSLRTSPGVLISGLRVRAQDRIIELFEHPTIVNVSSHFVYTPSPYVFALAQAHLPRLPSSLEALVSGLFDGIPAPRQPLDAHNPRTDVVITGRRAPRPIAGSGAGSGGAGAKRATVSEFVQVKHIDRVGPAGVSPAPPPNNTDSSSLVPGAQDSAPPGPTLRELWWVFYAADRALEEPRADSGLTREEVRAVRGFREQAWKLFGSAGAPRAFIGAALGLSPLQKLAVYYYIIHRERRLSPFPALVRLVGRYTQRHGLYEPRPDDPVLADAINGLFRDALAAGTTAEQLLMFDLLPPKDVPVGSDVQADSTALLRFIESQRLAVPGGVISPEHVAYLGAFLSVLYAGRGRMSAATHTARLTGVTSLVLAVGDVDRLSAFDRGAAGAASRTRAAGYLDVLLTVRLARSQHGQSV

pUL21-H6 = molecular target: T4, pUL21-H6 (herpes simplex virus 1 (HSV-1), UniProt F8RG07 1-535); assay: ITC; 25 °C; 20 mM Tris pH 8.5, 500 mM NaCl, 0.5 mM TCEP; CERTL forms in the syringe titrated into pUL21 forms in the cell; one-site binding model; details: both partners purified
T4 construct: HSV-1 pUL21, UniProt F8RG07; some paragraphs print H6-pUL21; also called H6-pUL21; WT pUL21; source: E. coli T7 Express lysY/Iq, purified (Ni-NTA, SEC); not shown: His6, C-terminal, kept
T4 sequence: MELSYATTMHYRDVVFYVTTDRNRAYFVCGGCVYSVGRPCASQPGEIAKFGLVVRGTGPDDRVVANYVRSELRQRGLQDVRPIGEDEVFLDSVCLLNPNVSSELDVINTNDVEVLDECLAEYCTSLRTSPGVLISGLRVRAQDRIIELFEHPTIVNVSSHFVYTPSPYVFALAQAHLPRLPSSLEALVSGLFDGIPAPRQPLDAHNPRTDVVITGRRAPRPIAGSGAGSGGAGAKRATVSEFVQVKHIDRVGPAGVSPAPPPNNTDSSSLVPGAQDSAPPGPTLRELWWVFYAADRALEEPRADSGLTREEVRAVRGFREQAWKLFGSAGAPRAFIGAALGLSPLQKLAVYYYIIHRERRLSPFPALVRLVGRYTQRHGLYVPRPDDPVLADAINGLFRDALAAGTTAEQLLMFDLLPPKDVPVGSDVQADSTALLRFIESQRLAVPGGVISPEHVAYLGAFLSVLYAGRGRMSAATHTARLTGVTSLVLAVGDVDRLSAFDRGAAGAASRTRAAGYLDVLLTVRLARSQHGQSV

H6-pUL21C = molecular target: T5, H6-pUL21C (herpes simplex virus 1 (HSV-1), UniProt F8RG07 275-535); assay: as above; details: both partners purified
T5 construct: HSV-1 pUL21 C-terminal domain, amino acids 275-535, UniProt F8RG07; Cloned in pOPTH; Monomer by SEC-MALS and SAXS; also called C-terminal domain of pUL21; source: E. coli T7 Express lysY/Iq, purified (Ni-NTA, SEC); not shown: MAH6, N-terminal, kept
T5 sequence: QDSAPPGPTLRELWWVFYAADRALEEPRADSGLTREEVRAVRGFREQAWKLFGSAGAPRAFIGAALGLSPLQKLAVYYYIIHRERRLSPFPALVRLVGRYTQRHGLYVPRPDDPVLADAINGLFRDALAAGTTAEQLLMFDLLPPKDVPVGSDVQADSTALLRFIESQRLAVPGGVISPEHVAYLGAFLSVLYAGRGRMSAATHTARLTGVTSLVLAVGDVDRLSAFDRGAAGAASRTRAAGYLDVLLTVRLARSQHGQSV

pUL21^V382E-H6 = molecular target: B1; assay: as above; details: both partners purified

In the case of B1, the “EC50 of pUL21^V382E-H6 (62.5 nM to 4 μM) for accelerating GST-PP1-mediated dephosphorylation of 0.5 μM CERT^P in vitro, all proteins purified, 25 nM GST-PP1γ, 30 min at 30 °C” value (StrepII-CERT^P) is reported as 3.33 μM.

B2: H6-miniCERTL (CERTL residues 20-131 plus 351-624) (domain or fragment, human, UniProt Q9Y5P4-1 20-131, looked up)
chain: SGPPVERCGVLSKWTNYIHGWQDRWVVLKNNALSYYKSEDETEYGCRGSICLSKAVITPHDFDECRFDISVNDSVWYLRAQDPDHRQQWIDAIEQHKTESGYGSESSLRRHGTSLPSGDAFSSVGTHRFVQKPYSRSSSMSSIDLVSASDDVHRFSSQVEEMVQNHMTYSLQDVGGDANWQLVVEEGEMKVYRREVEENGIVLDPLKATHAVKGVTGHEVCNYFWNVDVRNDWETTIENFHVVETLADNAIIIYQTHKRVWPASQRDVLYLSVIRKIPALTENDPETWIVCNFSVDHDSAPLNNRCVRAKINVAMICQTLVSPPEGNQEISRDNILCKITYVANVNPGGWAPASVLRAVAKREYPKFLKRFTSYVQEKTAGKPILF
notes: human CERTL, PH domain and start of the middle region, residues 20-131 of Q9Y5P4-1; human CERTL, end of the middle region and STARTL domain, residues 351-624 of Q9Y5P4-1 (middle region residues 132-350 left out); source: E. coli T7 Express lysY/Iq, purified (Ni-NTA, SEC); not shown: MAH6, N-terminal, kept
For B2, the Kd [1] was 5.5 µM and 3.15 µM, the “stoichiometry N” value [1] was 0.95 and 1 and the Kd [2] was 8.39 µM and 8.83 µM and 7.04 µM. The “stoichiometry N” value [2] was 1.22 and 1.01 and 1.25.

B3: H6-miniCERTL (domain or fragment, human, UniProt Q9Y5P4-1 20-624, looked up)
chain: SGPPVERCGVLSKWTNYIHGWQDRWVVLKNNALSYYKSEDETEYGCRGSICLSKAVITPHDFDECRFDISVNDSVWYLRAQDPDHRQQWIDAIEQHKTESGYGSESSLRRHGTSLPSGDAFSSVGTHRFVQKPYSRSSSMSSIDLVSASDDVHRFSSQVEEMVQNHMTYSLQDVGGDANWQLVVEEGEMKVYRREVEENGIVLDPLKATHAVKGVTGHEVCNYFWNVDVRNDWETTIENFHVVETLADNAIIIYQTHKRVWPASQRDVLYLSVIRKIPALTENDPETWIVCNFSVDHDSAPLNNRCVRAKINVAMICQTLVSPPEGNQEISRDNILCKITYVANVNPGGWAPASVLRAVAKREYPKFLKRFTSYVQEKTAGKPILF
notes: human CERTL, UniProt Q9Y5P4-1, residues 20-131 plus 351-624 (PH and STARTL domains joined by a retained 23 amino acid stretch of the middle region); Cloned into pOPTH; Monomer by SEC-MALS; source: E. coli T7 Express lysY/Iq, purified (Ni-NTA, SEC); not shown: MAH6, N-terminal, kept
B3 was tested, and the Kd (pUL21-H6) was 1040 nM, the dH (pUL21-H6) was -8.65 kcal/mol and the “stoichiometry N” value (pUL21-H6) was 0.89. The dH (H6-pUL21C) was -3.84 kcal/mol, the “stoichiometry N” value (H6-pUL21C) was 0.97 and the Kd (pUL21^V382E-H6) was 8.09 µM. For the same binder, the dH (pUL21^V382E-H6) was -7.2 kcal/mol and the “stoichiometry N” value (pUL21^V382E-H6) was 1.16.
